The nanobody polyreactivity screen of Harvey et al. (2022)

Assay: yeast display, Sf9 membrane polyspecificity reagent, FACS + sequencing; frameworks hold sequencing errors
Outline: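 Nanobodies from a synthetic yeast display library (Saccharomyces cerevisiae BJ5465), induced 36–48 hours with galactose, were stained 1 hour at 4 °C with 10% biotinylated, detergent-solubilized Sf9 membrane reagent, enriched on streptavidin microbeads, then FACS-sorted. Anti-HA (expression) and streptavidin (reagent binding) fluorescence set low and high (top ~1%) gates. Polyreactivity labels come from the gate of origin. Genes were colony-PCR amplified, MiSeq 2 × 250 sequenced and filtered by CDR length.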

Sequence	polyreactivity (PSR sort gate)
QVQLVESGGGLVQAGGSLRLSCAASGSIFQYYAMGWYRQAPGKERELVAAISSGDTTNYADSVKGRFTISRDNAKNTVYLQMNSLKPEDTAVYYCNAEGGWYDWDDYWGQGTQVTVSS	low polyreactivity
QVQLVESGGGLVQAGGSLRLSCAASGSIFRANAMGWYRQAPGKERELVAAISRRGGNTYYADSVKGRFTISRDNAKNTVYLQMNSLKPEDTAVYYCAADRSEYDYWGQGTQVTVSS	high polyreactivity
QVQLVESGGGLVQAGGSLRLSCAASGSIFRAYAMGWDRQAPGKERELVATISGSGGSRSYADSVKGRFTISRDNAKNTVDLQMNSLKPEDTAVYYCARDRYYKYTSYDYWGQGTQVTVSA	low polyreactivity
QVQLVESGGGLVQAGGSLRLSCAASGSIFRAYAMGWYRQAPGKEMELVAAISSGVSTNYADSVKGRFTISRDNAKNTVYLQMNSLKPEDTAVYYCNTDKYSESYRSYEYWGQGTQVTVSS	low polyreactivity
QVQLVESGGGLVQAGGSLRLSCAASGSIFRAYAMGWYRQAPGKERELVAAISWGGGSTSYADSVKGRFTISRDNAKNTVYLQMNSLNPEDTAVYYCAARFIWPARYYSWGQGTQVTVSS	high polyreactivity
QVQLVESGGGLVQAGGSLRLSCAASGSIFRAYAMGWYRQAPGKERELVAAITGNGARTYYADSVKGRFTISRDNAKNTVYLQMNSLKPEDTAVYYCAKRGNRQHRWWYDYWGQGTQVTVSS	low polyreactivity
QVQLVESGGGLVQAGGSLRLSCAASGSIFRDYVMGWYRQAPGKERELVAAISGNDGSTYYADSVKGRFTISRDNAKNTVYLQMNSLKPEDTAVYYCNADEASTVPQFYSYLDFDYWGQGTQVTVSS	low polyreactivity
QVQLVESGGGLVQAGGSLRLSCAASGSIFRFYAMGWYRQAPWKERELVAGITWSGASTYYADSVKGRFTISRDNAKNTVYLQMNSLKPEDNAVYYCAAKSLIVRYDSWGQGTQVTVSS	high polyreactivity
QVQLVESGGGLVQAGGSLRLSCAASGSIFRGNALGWYRQAPGKERELVAAITGSGGNTYYADSVKGRFTISRDNAKNTVYLQMNSLKPEDTAVYYCNAQRYRVVVYNSHGWQTRNYWGQGTQVTVSS	low polyreactivity
QVQLVESGGGLVQAGGSLRLSCAASGSIFRGNAMGWYRQAPGKERELVAAITYNDGGTYYADSVKGRFTISRDNAKNTVYLQMNSLKPEDTAVYYCAAVGTGNKSILYDYWGQGTQVTVSS	low polyreactivity
QVQLVESGGGLVQAGGSLRLSCAASGSIFRGYGMGWYRQAPGKERELVAANNYSGGSTYYADSVKGRFTISRDNAKNTVYLQMNSLKPEDTAVYYCNKVYYRQRGEYYYWGQGTQVTVSS	high polyreactivity
QVQLVESGGGLVQAGGSLRLSCAASGSIFRGYTMGWYRQAPGKERELFAAISTRGGSTYYADSVKGRFTISRDNAKNTVYLQMNSLKPEDTAVYYCNARSRGRASGYDYWGQGTQVTVSS	high polyreactivity
QVQLVESGGGLVQAGGSLRLSCAASGSIFRGYTMGWYRQATGKERELVATISWSGGSTYYADSVKGRFTISRDNAKNTVYLQMNCLKPEDTAVYYCAAVWYLGIPYDYWGQGTQVTVSS	high polyreactivity
QVQLVESGGGLVQAGGSLRLSCAASGSIFRGYVMGWYRQAPGKERELVAAIRWRGGDTRYADSVKGRFTISRDNAKNTVYLQMNSLKPEDTAVYYCAAQYRKTQYQKKYDYWGQGTQVTVSS	high polyreactivity
QVQLVESGGGLVQAGGSLRLSCAASGSIFRKNAMGWYRQAPGKERELVAAITCTGRTTYADSVKGRFTISRDNAKNTVYLQMNSLKPEDTAVYYCAADVNYYQHRLYYWGQGTQVTVSS	low polyreactivity
QVQLVESGGGLVQAGGSLRLSCAASGSIFRKNAMGWYRQAPGKERELVAAITYRTGSTYYADSVKGRFTISRDNAKNTVYLQMNSLKPEDTAVYYCAAQTWGSGYGHIGRRRHDYWGQGTQVTVSS	high polyreactivity
QVQLVESGGGLVQAGGSLRLSCAASGSIFRKYAMGWYRQAPGKEREFVAAISRSGGGTYYADSVKGRFTISRDNAKNTVYLQMNSLKPEDTAVYYCAAEFRTGLQGEHYYWGQGTQVTVSS	low polyreactivity
QVQLVESGGGLVQAGGSLRLSCAASGSIFRLNALGWYRQAPGKERELVAAITWSDSSTYYADSVKGRFTISRDNAKNTVYLQMNSLKQEDTAVYYCAADPQSYKYDYWGQGTQVTVSS	low polyreactivity
QVQLVESGGGLVQAGGSLRLSCAASGSIFRLNAMGWYRQAPGKERELVAAIDGSDGSTYYADSVKGRFTISRDNAKNTVYLQMNSLKPEDTAVYYCAAERGYPTDYYSGSDDYWGQGTQVTVSS	low polyreactivity
QVQLVESGGGLVQAGGSLRLSCAASGSIFRLNAMGWYRQAPGKERELVAAITSSGGNTYYADSVKGRFTISRDNAKNTVYLQMNSLKPEDTAVYYCATRAYARWYGYWGQGTQVTVSS	low polyreactivity
QVQLVESGGGLVQAGGSLRLSCAASGSIFRNNAMGWYIQAPGKERELVASITRRGGSTYYADSVKGRFTISRDNAKNTVYLQMNSLKPEYTAGSYCAATTQHRYTLNYWGQGTQVTVSS	high polyreactivity
QVQLVESGGGLVQAGGSLRLSCAASGSIFRNYAMGWYRQAPGKEREFVAAISGGGGSTYYADSVKGRFTISRDNAKNTVYLQMNSLKPEDTAVYYCARVRYYGALKLYAYDHWGQGTQVTVSS	high polyreactivity

Sequence	polyreactivity (PSR sort gate)
QVQLVESGGGLVQAGGSLRLSCAASGSIFRPNDMGWYRQAPGKERELVAAISTGGSTSYADSVKGRFTISRDNAKNTVYLQMNSLKPEDTAVYYCAAVYYLTDWYGVWYSFDYWGQGTQVTVSS	low polyreactivity
QVQLVESGGGLVQAGGSLRLSCAASGSIFRPYAMGRYRQAPGKERELVAAISWRSGRTYYADSVKGRFTISRDNAKNTVYLQMNSLKPEDTAVYYCAADLASYAYRYDYWGQGTQVTVSS	high polyreactivity
QVQLVESGGGLVQAGGSLRLSCAASGSIFRPYAMGWYRQAPGKERELVAAITWSGGRTYYADSVKGRFTISRDNAKNTVYLQMNSLKPEDTAVYYCAADDSEGFDYWGQGTQVTVSS	high polyreactivity
QVQLVESGGGLVQAGGSLRLSCAASGSIFRQYAMGWYRQAPGKERELVAAITYSGGNTYYADSVKGRFTISRDNAKNTVYVQMNSLKPEDTAVYYCAADYGSRSWEYNYWGQGTQVTVSS	low polyreactivity
QVQLVESGGGLVQAGGSLRLSCAASGSIFRRNAMGWYRQAPGKERELVAAISSNGGSTYYADSVKGRFTISRDNAKNTVYLQMNSLKQEDTAVYYFNALGRVRYSPRYGYDYWGLGTQVTVSS	high polyreactivity
QVQLVESGGGLVQAGGSLRLSCAASGSIFRRNAMGWYRQAPGKERELVAAISSSGNTYYADSVKGRFTISRDNAKNTVYLQMNSLKPEDTAVYYCAADGRNYYGSYDYWGQGTQVTVSS	low polyreactivity
QVQLVESGGGLVQAGGSLRLSCAASGSIFRRNAMGWYRQVPGKERELVAAITWRGDRTYYADSVKGRFTISRDNAKNTVYLQMNSLKPEDTAVYYCNKLGRIQYDYWGQGTQVTVSS	high polyreactivity
QVQLVESGGGLVQAGGSLRLSCAASGSIFRRNTMGWYRQAPGKERELVAAITFTGGRTYYADSVKGRFTISRDNAKNTVYLQMNSLKPEDTAVYYCNRVTAYYPTKFDYWGQGTQVTVSS	high polyreactivity
QVQLVESGGGLVQAGGSLRLSCAASGSIFRRYAMGWYRQAPGKERELVAAIDSSGGTSYADSVKGRFTISRDNAKNTVYLQMNILKPEDTAVYYCATSFSWKGRKYGYWGQGTQVTVSS	high polyreactivity
QVQLVESGGGLVQAGGSLRLSCAASGSIFRSYAMGWYRHAPGKERELVASISRRGGSTYYADSVKGRFTSSRDNSKNTVYLHMNSRKPEDTAVYYCAAVRYNSRVSTTTSEMYYWGQGTQVTVSS	low polyreactivity
QVQLVESGGGLVQAGGSLRLSCAASGSIFRSYAMGWYRQAPGKERELVAAISRRGSSTYYADSVKGRFTISRDNAKNTVYLQMNSLKPEDTAVYYCAADRVVPRGRYGGDYWGQGTQVTVSS	high polyreactivity
QVQLVESGGGLVQAGGSLRLSCAASGSIFRSYAMGWYRQAPGKERELVAAITNGGSTYYADSVKGRFTISRDNAKNTVYLQINSLKPEDTAVYYCAAARYTYWFYLVKKTGYYWGQGTQVTVSS	high polyreactivity
QVQLVESGGGLVQAGGSLRLSCAASGSIFRSYAMGWYRQAPGKERELVAGISYSGGSTYYADSVKGRFTISRDKAKNTVYLQMNSLKPEDTAVYYCNVDGGTYFFFVGAWGEYDYWGQGTQVTVSS	low polyreactivity
QVQLVESGGGLVQAGGSLRLSCAASGSIFRSYGMGWYRQAPGKDRELVPSISRRGGSTYYADSVKGRFTISRDNAKNTVYLQTNSLKPEDTAVYYCAAVRYNSRVSTTPSEMYYWGQGTQVTVSS	low polyreactivity
QVQLVESGGGLVQAGGSLRLSCAASGSIFRTNAIGWYRQAPGRERELVAAITGSGGSTYYADSVKGRFTISRDNAKNTVYLQMNSLKPEDTAVYYCAVVGYHRDFDYWGQGTQVTVSS	low polyreactivity
QVQLVESGGGLVQAGGSLRLSCAASGSIFRTNAMGWYRQAPGKERELVAAISSGDRTYYADSVKGRFTISRDNAKNTVYLQMNSLKPEDTAVYYCAARGYSATVYAGTYDYWGQGTQVTVSS	low polyreactivity
QVQLVESGGGLVQAGGSLRLSCAASGSIFRTNAMGWYRQAPGKERELVAAITGRGGSTYYADSVKGRFTISRNNAKNTVYLQMNSLKPEDTAVYYCAADTWYGYRYKYDYWGQGTQVTVSS	high polyreactivity
QVQLVESGGGLVQAGGSLRLSCAASGSIFRTYAMGWYRQAPGKERELVAAIRRSGGRTYYADSVKGRFTISRDNAKNTVYLQMNSLKPEDTAVYYCNKRVSKQSKYDYWGQGTQVTVSS	high polyreactivity
QVQLVESGGGLVQAGGSLRLSCAASGSIFRTYTMGWYRQAPGKEREFVAAISRSGGSTYYADSVKGRFTISRDNAKNTVYLQMNSLKPEDTAVYYCNARWGLGSYGYWGQGTQVTVSS	high polyreactivity
QVQLVESGGGLVQAGGSLRLSCAASGSIFRVNDMGWYRQAPGKERELVAAISSNGDDTFYADSVKGRFTISRDNAKNTVYLQMNSLKPEDTAVYYCNAESPTYPDYYFKYTHYDYWGQGTQVTVSS	low polyreactivity
QVQLVESGGGLVQAGGSLRLSCAASGSIFRVNDMGWYRQAPGKERELVAAISSNGDDTFYADSVKGRFTISRDNSKNTVYLQMNSLKPEDTAVYYCNAESPTYPDYFFKYTHYDYWGQGTQVTVSS	low polyreactivity
